Substitutions are numbered along the chain they refer to.
Columns and labels:
[1] = target: T1, human BCMA expressed on cells (human, UniProt Q02223 1-184); experiment: cell-based or functional assay
T1 sequence (looked up): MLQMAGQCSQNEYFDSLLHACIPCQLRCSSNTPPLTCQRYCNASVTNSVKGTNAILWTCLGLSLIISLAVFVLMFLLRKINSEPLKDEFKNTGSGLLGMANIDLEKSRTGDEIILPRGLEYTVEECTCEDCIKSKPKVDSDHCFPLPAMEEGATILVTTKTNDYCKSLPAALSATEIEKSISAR

[2] = target: T2, recombinant human BCMA Fc 4-53 (human); experiment: competition ELISA: binding of recombinant human BAFF to coated recombinant human BCMA Fc 4-53, biotinylated anti-BAFF and streptavidin-HRP, % of control
T2 construct: also called Human BCMA CD33-hBCMA ECD (4-53) TEV-Fc; recombinant BCMA
Experimental: (§1) 96 well flat bottomed plates were coated overnight with 1 μg/mL solution of recombinant human BCMA Fc 4-53 in PBS. Following a wash step using 0.05% TWEEN20, plates were blocked with 2% Bovine Serum Albumin solution in PBS for 1 hour at room temperature. […] 40 μL of 2% BSA was added to the relevant control wells. […] Equivalent volume of 2% BSA was added to the relevant control wells. Plates were allowed to incubate for 2 hours at room temperature, after which they were washed as before. […] Following a wash step, 50 µL of a 1:4000 dilution of Streptavidin-HRP (Amersham RPN4401) was added to each well and incubated for 30 minutes at room temperature. The wash process was repeated again followed by the addition of […] of Tetramethylbenzidine substrate solution (T8665, Sigma) into each well. Plates were incubated for 20-25 minutes at room temperature, wrapped in foil. The reaction was stopped with the addition of […] of 1M H₂SO₄. Optical density was determined at 450 nm using Spectromax reader.

[3] = target: T2, recombinant human BCMA Fc 4-53; experiment: competition ELISA: binding of recombinant human APRIL to coated recombinant human BCMA Fc 4-53, biotinylated anti-APRIL and streptavidin-HRP, % of control
Experimental: as §1

[4] = target: T2, recombinant human BCMA Fc 4-53; experiment: ELISA, neutralisation of ligand binding to plate-coated BCMA Fc 4-53; competitor APRIL; competitor APRIL
Experimental: as §1

[5] = target: T2, recombinant human BCMA Fc 4-53; experiment: ELISA, neutralisation of ligand binding to plate-coated BCMA Fc 4-53; competitor BAFF; competitor BAFF
Experimental: as §1

[6] = target: T3, recombinant human BCMA, commercial (US Biological, B0410) (human, UniProt Q02223 5-54, limits assumed); experiment: ProteOn SPR run 2, antibody captured on Protein A, 25C
T3 construct: also called commercial human BCMA; Human commercial BCMA
T3 chain (looked up): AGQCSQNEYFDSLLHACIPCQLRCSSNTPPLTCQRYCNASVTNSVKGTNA

[7] = target: T4, recombinant cyno BCMA, in house material (cyno, UniProt A0A2K5UD97 4-52); experiment: as above
T4 construct: also called Cyno in house BCMA

[8] = target: T5, recombinant human BCMA, in house material (human, UniProt Q02223 4-53, limits assumed); experiment: ProteOn SPR run 2, antibody captured on Protein A, 25C; Run 2 (Table 9)
T5 construct: also called Human in house BCMA; In house human BCMA
Experimental: (§2) The initial screen of CA8 chimeric and humanised variants was carried out on the ProteOn XPR36 (Biorad). The method was as follows; Protein A was immobilised on a GLC chip (Biorad, Cat No: 176-5011) by primary amine coupling, CA8 variants were then captured on this surface and recombinant human BCMA (in house or commercial US Biological, B0410) materials (run 2 only)) passed over at 256, 64, 16, 4, 1 nM with a 0 nM injection (i.e. buffer alone) used to double reference the binding curves, the buffer used is the HBS-EP buffer. 50 mM NaOH was used to regenerate the capture surface. The data was fitted to the 1:1 model using the analysis software inherent to the ProteOn XPR36. […] Both runs were carried out at 25° C.

[9] = target: T1, human BCMA expressed on cells; experiment: FACS on ARH77-hBCMA 10B5 transfectant cells, PE anti-human IgG, MFI
Experimental: Cells were then washed with FACS buffer (PBS+0.5% BSA+0.1% sodium azide) to remove unbound antibody. Cells were incubated with a secondary PE labelled anti-human IgG antibody for 15 minutes at RT and then washed with FACS buffer to remove unbound antibody. Cells were analysed by FACS and mean fluorescence intensity (MFI) values measured to determine binding.

[10] = target: T3, recombinant human BCMA, commercial (US …); experiment: Biacore T100, antibody captured on Protein A, 37C
[11] = target: T4, recombinant cyno BCMA, in house material; experiment: Biacore T100, antibody captured on Protein A, 37C
[12] = target: T3, recombinant human BCMA, commercial (US …); experiment: Biacore T100, antibody captured on Protein A, 25C, experiment 1
Experimental: (§3) Protein A was immobilised on a CMS chip (GE Healthcare, Cat No: BR-1005-30) by primary amine coupling and this surface was then used to capture the antibody molecules. Recombinant human BCMA (US Biological, B0410) was used as analyte at 256 nM, 64 nM, 16 nM, 4 nM and 1 nM. Regeneration of the capture surface was carried out using 50 mM NaOH. All binding curves were double referenced with a buffer injection (i.e. 0 nM) the data was fitted to the using the 1:1 model inherent to T100 evaluation software. The run was carried out at 25° C. and 37° C. for experiment 1 and only 37° C. for experiment 2 using HBS-EP as the running buffer.

[13] = target: T3, recombinant human BCMA, commercial (US …); experiment: Biacore T100, antibody captured on Protein A, 37C, experiment 1
Experimental: as §3

[14] = target: T3, recombinant human BCMA, commercial (US …); experiment: Biacore T100, antibody captured on Protein A, 37C, experiment 2
Experimental: as §3

[15] = target: T1, human BCMA expressed on cells; experiment: FACS on H929 multiple myeloma cells, antibody 5 µg/mL, PE anti-mouse IgG
Experimental: Cells were incubated for 20 mins at room temperature (RT) and then washed with FACS buffer (PBS+0.5% BSA+0.1% sodium azide) to remove unbound antibody. Cells were incubated with a secondary PE labelled anti-mouse IgG antibody for 15 minutes at RT and then washed with FACS buffer to remove unbound antibody. Cells were analysed by FACS to detect antibody bound to the cells.

[16] = target: T5, recombinant human BCMA, in house …; experiment: ProteOn SPR run 1, antibody captured on Protein A, 25C; Run 1 (Table 8)
Experimental: as §2

B1: J6M0 potelligent antibody (afucosylated humanised CA8 J6M0) (antibody, human IgG1, kappa, V domains shown)
VH: QVQLVQSGAEVKKPGSSVKVSCKASGGTFSNYWMHWVRQAPGQGLEWMGATYRGHSDTYYNQKFKGRVTITADKSTSTAYMELSSLRSEDTAVYYCARGAIYDGYDVLDNWGQGTLVTVSS
VL: DIQMTQSPSSLSASVGDRVTITCSASQDISNYLNWYQQKPGKAPKLLIYYTSNLHSGVPSRFSGSGSGTDFTLTISSLQPEDFATYYCQQYRKLPWTFGQGTKLEIKR
modifications: afucosylated (Potelligent) Fc glycan
notes: human IgG1 kappa; also called J6M0 potelligent version; CA8 J6M0 Potelligent
IC50 for inhibition of APRIL signalling (phosphorylated NFkappaB in washed H-929 cells) [1]: 2.43 µg/mL | IC50 for inhibition of BAFF signalling (phosphorylated NFkappaB in washed H-929 cells) [1]: 0.91 µg/mL | IC50 (read off the curve) [2]: ~700 ng/mL | IC50 (read off the curve) [3]: ~600 ng/mL | EC50 [4]: 0.616 µg/mL | EC50 [5]: 0.748 µg/mL

B2: CA8 humanised J6M1 (antibody, human IgG1, kappa, V domains shown)
VH: B1 VH
VL: B1 VL with F71Y
notes: Humanised CA8, heavy chain J6 with light chain M1, human IgG1 kappa; also called CA8 J6M1
Kd [6]: 0.063 nM | Kd [7]: 5.3 nM | Kd [8]: 0.124 nM | binding result [9]: binds

B3: S307118G03 H5L0 (antibody, human IgG1, kappa, V domains shown)
VH: QVQLVQSGAEVKKPGSSVKVSCKASGYTFTDYYMKWVRQAPGQGLEWIGEIYPNNGGITYNQKFKGRATLTVDKSTSTAYMELSSLRSEDTAVYYCANGYEFDYWGQGTLVTVSS
VL: B1 VL with D28G, N53S, R92S
notes: Humanised, human IgG1 kappa; also called S307118G03 humanised H5L0
binding result [7]: no binding

B4: CA8 humanised J6M2 (antibody, human IgG1, kappa, V domains shown)
VH: B1 VH
VL: B1 VL with M4L, K45E, L47V, F71Y
notes: Humanised CA8, heavy chain J6 with light chain M2, human IgG1 kappa; also called CA8 J6M2
Kd [6]: 0.071 nM | Kd [7]: 6.86 nM | Kd [8]: 0.202 nM | binding result [9]: binds

B5: CA8 humanised J9M0 (antibody, human IgG1, kappa, V domains shown)
VH: B1 VH with A24G, G27Y, S30T, M48I, V68A, I70L, K74T, A97T
VL: B1 VL
notes: Humanised CA8, heavy chain J9 with light chain M0, human IgG1 kappa; also called CA8 J9M0
Kd [10]: 0.035 nM | Kd [11]: 0.46 nM | Kd [12]: 0.021 nM | Kd [13]: 0.042 nM | Kd [14]: 0.052 nM | binding result [9]: binds

B6: CA8 humanised J6M0 (antibody, human IgG1, kappa, V domains shown)
VH: B1 VH
VL: B1 VL
notes: Humanised CA8, heavy chain J6 with light chain M0, human IgG1 kappa; also called CA8 J6M0; humanised J6M0 (wild type)
Kd [6]: 0.086 nM | Kd [7]: 5.63 nM | Kd [12]: 0.121 nM | IC50 (read off the curve) [2]: ~700 ng/mL | Kd [13]: 0.698 nM | IC50 (read off the curve) [3]: ~600 ng/mL | EC50 [4]: 0.63 µg/mL | Kd [14]: 0.498 nM | Kd [8]: 0.308 nM | EC50 [5]: 0.776 µg/mL | binding result [9]: binds

B7: CA8 humanised J9M1 (antibody, human IgG1, kappa, V domains shown)
VH: B1 VH with A24G, G27Y, S30T, M48I, V68A, I70L, K74T, A97T
VL: B1 VL with F71Y
notes: Humanised CA8, heavy chain J9 with light chain M1, human IgG1 kappa; also called CA8 J9M1
Kd [10]: 0.018 nM | Kd [11]: 0.442 nM | binding result [9]: binds

B8: CA8 humanised J8M2 (antibody, human IgG1, kappa, V domains shown)
VH: B1 VH with G27Y, S30T, A97T
VL: B1 VL with M4L, K45E, L47V, F71Y
notes: Humanised CA8, heavy chain J8 with light chain M2, human IgG1 kappa; also called CA8 J8M2
Kd [10]: 0.057 nM | Kd [11]: 1.32 nM

B9: murine S332121F02 (antibody, V domains shown)
VH: EVQLQQSGPVLVKPGASVKMSCEASGYTFTDYYMNWVKQSHGKTLEWIGVINPYNGGTDYNQKFKGKATLTVDKSSSTAYMELNSLTSEDSAVYYCARSVYDYPFDYWGQGTLVTVSS
VL: DIVLTQSPASLAVSLGQRATISCRASESVSIHGTHLMHWYQQKPGQPPKLLIYAASNLESGVPARFSGSGSETDFTLNIHPVEEEDAATYFCQQSIEDPRTFGGGTKLEIK
notes: Murine hybridoma antibody
binding result [15]: binds

B10: murine S322110D07 (antibody, V domains shown)
VH: EVQLQQSGPELVKPGTSVKIPCKTSGYIFTDYSIDWVKQSHGKSLEWIGDIDPNYGDPIYNHKFKGKATLTVDRSSSTAYMELRSLTSEDTAVYFCARRATGTDWFAFWGQGTLVTVSS
VL: DIQMTQSPASLSVSVGETVTITCRASENIYNNLAWYQQKQGKSPQLLVYAATILADGVPSRFSGSGSGTQYSLKINSLQSGDFGTYYCQHFWGTPLTFGAGTKLELKR
notes: Murine hybridoma antibody; also called S3222110D07; S3322110D07
binding result [15]: binds

B11: S307118G03 Chimera (antibody, human IgG1, kappa, V domains shown)
VH: EVQLQQSGPELVKPGASVKISCKASGYTFTDYYMKWVKQSHGKSLEWIGEIYPNNGGITYNQKFKGKATLTVDKSSSTAYMELRSLTSEDSAVYYCANGYEFVYWGQGTLVTVSA
VL: DIQMTQTASSLSASLGDRVTISCSASQGISNYLNWYQQKPDGTVKLLIYYTSSLHSGVPSRFSGSGSGTDYSLTISNLEPEDIATYYCQQYSKLPWTFGGGTKLELKR
notes: also called chimeric S307118G03
Kd [6]: 0.956 nM | binding result [7]: no binding | Kd [16]: 4.11 nM | Kd [8]: 3.44 nM
